Laboratory results published in IntAct's records for PubMed 21035448.

B1: Regulator of G-protein signaling 4 (Rattus norvegicus (Rat)), P49799 (parent)
chain: MCKGLAGLPASCLRSAKDMKHRLGFLLQKSDSCEHSSSHSKKDKVVTCQRVSQEEVKKWAESLENLINHECGLAAFKAFLKSEYSEENIDFWISCEEYKKIKSPSKLSPKAKKIYNEFISVQATKEVNLDSCTREETSRNMLEPTITCFDEAQKKIFNLMEKDSYRRFLKSRFYLDLTNPSSCGAEKQKGAKSSADCTSLVPQCA
partner: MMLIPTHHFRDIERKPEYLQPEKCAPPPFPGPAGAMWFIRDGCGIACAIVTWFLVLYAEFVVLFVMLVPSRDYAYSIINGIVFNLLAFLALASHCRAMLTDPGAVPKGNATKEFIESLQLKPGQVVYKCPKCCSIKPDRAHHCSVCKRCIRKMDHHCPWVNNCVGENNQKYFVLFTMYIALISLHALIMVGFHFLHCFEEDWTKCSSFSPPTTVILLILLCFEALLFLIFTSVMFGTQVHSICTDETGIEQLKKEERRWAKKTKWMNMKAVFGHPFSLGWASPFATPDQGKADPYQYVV

Variants of: B1
Settings: with zdhc3_mouse Zdhhc3, Q8R173

effect of a mutation on the interaction | Variant
disrupting interaction | C2S
